Measured values published in patent US7977317B2, “Compositions and methods for modulating blood-brain barrier transport” (Raptor Pharmaceutical Inc., priority 2001, dated 2011).

Experiments:
[1] = In situ brain perfusion with capillary depletion; assay type: in vivo; conditions: mice, 10 min perfusion
Description: FIG. 11 examines the accumulation and transcytosis of p97. FIG. 11a, of [^125I]-p97, [^125I]-BSA and [^125I]-holo-transferrin one hour after i.v. injection. The radioactivity in brain was compared between the three compounds. (n=3); FIG. 11b, Accumulation of p97 and transferrin into the mouse brain parenchyma. In situ brain perfusion was performed with human [^125I]-p97 or [^125I]-holo-transferrin at a final concentration of 10 nM via a catheter inserted in the right common carotid artery. The volume of distribution (VD) of [^125I]-proteins were obtained in the whole brain homogenate (white bars), in brain capillaries (solid bars) and in brain parenchyma (hatched bars) after isolation of the right hemisphere and capillary depletion. Results were obtained for p97 (n=10) and for holo-transferrin (n=6); FIG. 11c, Transcytosis of p97 across BBCEC monolayers. Transcytosis experiments were performed 37° C. (open circles) and 4° C. (closed circles) with BBCEC monolayers. […] Apical-to-basal and basal-to-apical transport of [^125I]-p97 (25 nM) was measured for 2 hrs at 37° C. At the end of the experiment, [^125I]-p97 was assessed in the lower or upper chambers of each well by TCA precipitation (n=4).
A. Brain uptake and in situ brain perfusion. […] The serum and brain samples were collected and the levels of radioactivity were measured. […]

BBCE = assay: Transcellular co-localization of p97 with clathrin in BBCE; assay type: cell-based, bovine; conditions: clathrin versus caveolin
From the text: FIG. 21 depicts the transcellular co-localization of p97 and clathrin turning transcytosis.
Transcellular localization of p97 and clathrin was examined in BBCE as the p97 moved from the luminal to abluminal side of the BBB model (FIG. 21). The data are indicative of a co-migration of p97 and clathrin. As a control for the effect of the Alexa label, the behavior of p97 and p97-alexa were compared. (data not shown).

LRP/LRP1B = assay: Ligand binding and cross-linking, LRP/LRP1B immunodetection in U-87 cells; set-up: species or system human; conditions: 4° C., cross-linked, non-reducing SDS-PAGE (FIG. 29)
Description: FIG. 29. […] U-87 cells were grown in monolayer in six-multiwell microplates at 37° C. under 5% CO2. The cell monolayer were incubated at 4° C. with p97 or RAP in Ringer/Hepes solution. After incubation, cell monolayer was washed 3 times with cold-Ringer/Hepes solution and proteins were cross-linked with 1 mM DSS. After, cells were lysed and equal quantities of protein (25 μg) were subjected to SDS-PAGE under non-reducing conditions and electroblotted onto PVDF membranes. […] (n=2).
Ligand-binding. Briefly, cells were incubated with [^125I]-p97 in Ringer/Hepes solution, in presence or in absence of 5 μM cold-P97 for 1 h at 4° C. After incubation, the cell monolayer was washed three times with cold Ringer/Hepes solution. After the ligand binding at 4° C., cell monolayer was washed three times with cold Ringer/Hepes solution and was incubated with DSS (Disuccinimidyl suberate) or Lomant's reagent DSP (Dithiobis(succinimidyl propionate)) from Pierce. After the cross-link, cells were lysed and proteins were separated by SDS-PAGE electrophoresis. Gels were fixed, dryed and exposed to Kodak films at −80° C. for about 3 weeks before developing. The cross-link was performed exactly as the manufacturer's protocol.

U-87 cells = assay: Morphology of U-87 cells after p97 treatment; assay type: cell-based, human; conditions: FIG. 33

B1: p97: recombinant human melanotransferrin (p97), provided by Synapse Technologies (protein, UniProt P08582 20-709, looked up)
Melanotransferrin: GMEVRWCATSDPEQHKCGNMSEAFREAGIQPSLLCVRGTSADHCVQLIAAQEADAITLDGGAIYEAGKEHGLKPVVGEVYDQEVGTSYYAVAVVRRSSHVTIDTLKGVKSCHTGINRTVGWNVPVGYLVESGRLSVMGCDVLKAVSDYFGGSCVPGAGETSYSESLCRLCRGDSSGEGVCDKSPLERYYDYSGAFRCLAEGAGDVAFVKHSTVLENTDGKTLPSWGQALLSQDFELLCRDGSRADVTEWRQCHLARVPAHAVVVRADTDGGLIFRLLNEGQRLFSHEGSSFQMFSSEAYGQKDLLFKDSTSELVPIATQTYEAWLGHEYLHAMKGLLCDPNRLPPYLRWCVLSTPEIQKCGDMAVAFRRQRLKPEIQCVSAKSPQHCMERIQAEQVDAVTLSGEDIYTAGKTYGLVPAAGEHYAPEDSSNSYYVVAVVRRDSSHAFTLDELRGKRSCHAGFGSPAGWDVPVGALIQRGFIRPKDCDVLTAVSEFFNASCVPVNNPKNYPSSLCALCVGDEQGRNKCVGNSQERYYGYRGAFRCLVENAGDVAFVRHTTVFDNTNGHNSEPWAAELRSEDYELLCPNGARAEVSQFAACNLAQIPPHAVMVRPDTNIFTVYGLLDKAQDLFGDDHNKNGFKMFDSSNYHGQDLLFKDATVRAVPVGEKTTYRGWLGLDYVAALEGMSSQQC
In the case of B1, the “Apparent VD of p97 in brain parenchyma relative to transferrin” value [1] is reported as 8.8 fold, the “Apparent VD in the brain parenchyma” value ([1]; 10 nM [125I]-protein (FIG. 11b)) is reported as 17.2 ml/100 g and the Co-localization during endocytosis/transcytosis (BBCE) is reported as “co-localize with clathrin”. For the same molecule, the “Association with LRP/LRP1B” value (LRP/LRP1B) was “high molecular weight dissociable complex” and the “Effect on the morphology of U-87 cells” value (U-87 cells) was “no discernable effect on the morphology”.
